Blank lines part the entries; values can stand above or below the molecule they belong to.
Tests used:
[1] = target: TNRC18 BAH domain, 2785-2968 (UniProt O15417); test: isothermal titration calorimetry; conditions: reference: H3(1–22)K9me3 peptide; sites T11
[2] = target: nucleosome core particle carrying a methyllysine analogue of histone H3K9 (H3Kc9me3) (Xenopus laevis); test: BLI
[3] = target: BAH domain of human TNRC18 (amino acids 2785–2968) (human) (UniProt O15417); test: ITC
[4] = target: T1, amino acids 718–792 of TNRC18 (Sin3-interaction motif of TNRC18) (human, UniProt O15417 718-792); test: ITC
T1 sequence (peptide, looked up): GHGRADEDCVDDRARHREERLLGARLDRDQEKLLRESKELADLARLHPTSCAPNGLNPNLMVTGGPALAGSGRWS

Sequence of BAH domain of human TNRC18 (amino acids 2785–2968) (human) (O15417 2785-2968): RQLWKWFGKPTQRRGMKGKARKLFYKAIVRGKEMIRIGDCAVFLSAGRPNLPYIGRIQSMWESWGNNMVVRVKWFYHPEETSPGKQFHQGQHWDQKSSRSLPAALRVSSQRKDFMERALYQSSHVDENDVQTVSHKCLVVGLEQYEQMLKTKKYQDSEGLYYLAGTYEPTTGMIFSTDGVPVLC

Molecule: histone H3 1-22 (from UniProt P68431) H3(1–22)K9me3 T11ph peptide
binding against the reference [1]: same

B1: PAH domain of Sin3 (domain or fragment)
chain: QRLKVEDALSYLDQVKLQFGSQPQVYNDFLDIMKEFKSQSIDTPGVISRVSQLFKGHPDLIMGFNTFLPPG
Kd [4]: 104 µM

Second part, the molecule after the results:

Kd [2]: 0.0188 µM
Molecule: BAH domain of human TNRC18 (amino acids 2785–2968) (from UniProt O15417 2785-2968) (domain or fragment)

Kd [3]: 252 µM
Molecule: H3K9me2 peptide

— PMC11000523 (Nature, 2023)
